Test results as given in patent US20220112291A1.

Target: human CD1a expressed on cells (human) (UniProt P06126)
Assay: cell-based or functional assay

Sequence of human CD1a expressed on cells (human) (P06126 17-327): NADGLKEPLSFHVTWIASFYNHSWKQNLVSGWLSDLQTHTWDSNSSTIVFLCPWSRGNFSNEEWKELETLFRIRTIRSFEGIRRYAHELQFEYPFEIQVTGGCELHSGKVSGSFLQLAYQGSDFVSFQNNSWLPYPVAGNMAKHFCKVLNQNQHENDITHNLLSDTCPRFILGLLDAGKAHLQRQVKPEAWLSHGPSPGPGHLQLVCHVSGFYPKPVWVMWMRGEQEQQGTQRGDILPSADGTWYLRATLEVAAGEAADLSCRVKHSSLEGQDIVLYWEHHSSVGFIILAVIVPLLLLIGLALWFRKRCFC

Substance | CD69 expression, IC50 [nM] | IL-2 secretion, IC50 [nM]
Human IgG1 (EFN) isotype control (antibody) | > 100 | > 100
OKT6-human IgG1 (EFN) (antibody) | 0.042 | 0.028
